In article PMC4132270:

Assays:
[1] = biological target: Taq 1C2 (Thermus aquaticus) (UniProt P19821); experiment: EMSA; details: 3' end blocked with dideoxy TMP (3' ddT; unclear whether the printed 3' T is the ddT or it is added); 0.25 nM hairpin, 0.5-1000 nM enzyme, 1x Taq buffer (50 mM KCl for wild type, 95 mM KCl for mutants; full composition and pH not stated for this assay), 37 C …
[2] = biological target: Taq 42 G59W;L245M;L375V;E507K;K508R;E734G;F749I (Thermus aquaticus) (UniProt P19821); experiment: EMSA; details: 3' end blocked with dideoxy TMP (3' ddT; unclear whether the printed 3' T is the ddT or it is added); 0.25 nM hairpin, 0.5-1000 nM enzyme, 1x Taq buffer (50 mM KCl for wild type, 95 mM KCl for mutants; full composition and pH not stated for this assay), 37 C …

In the case of “CTCCAGACACGACGCAGTTGCCCGATGGTCGACGTTCGCGAAAGCGAACGTCGACCATCGGGCAACT [hairpin primer-template]”, the Kd [1] is reported as 1.9 nM and the Kd [2] is reported as 2.75 nM.
